Test results taken from article PMC12344693, “Human Milk Oligosaccharides Multivalently Presented on Defined Synthetic Neo-Glycoproteins Are Nanomolar Ligands of Tandem-Repeat Galectins” (Biomacromolecules, 2025).

T1: Asialofetuin (UniProt P12763 19-359, asialo form (glycans without sialic acid), by its name only)
T1 construct: asialofetuin (desialylated fetuin); neither source nor species is stated; It is coated on the ELISA plate (0.1 µM in PBS); also called ASF
T1 sequence (looked up): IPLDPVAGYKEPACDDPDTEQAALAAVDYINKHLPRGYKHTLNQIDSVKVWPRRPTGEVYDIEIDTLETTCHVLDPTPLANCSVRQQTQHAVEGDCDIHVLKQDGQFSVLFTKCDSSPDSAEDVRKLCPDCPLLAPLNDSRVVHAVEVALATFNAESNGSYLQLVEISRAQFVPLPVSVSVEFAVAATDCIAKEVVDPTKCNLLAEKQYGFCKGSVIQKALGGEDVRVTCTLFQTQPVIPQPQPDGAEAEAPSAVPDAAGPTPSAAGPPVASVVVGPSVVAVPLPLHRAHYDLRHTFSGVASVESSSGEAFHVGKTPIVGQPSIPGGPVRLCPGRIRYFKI


What was measured:
[1] = target: T2, neo-glycoprotein NGP5 (LN2-Lac-HSA) (human, UniProt P02768 25-609, LN2-Lac (Galβ4GlcNAcβ3Galβ4Glc) on an ethylthioureidyl linker, coupled through squaric acid to lysine residues; approximately 5 to 9 glycans per HSA molecule (number in Table S7); positions not stated); assay: BLI; biotinylated galectin constructs (2 μg/mL in PBS, 0.05% Tween-20) immobilised on streptavidin biosensors; neo-glycoproteins 1.56-100 nM in solution; 25 °C, 850 rpm; association 450 s, dissociation 600 s; Langmuir 1:1 kinetic model; settings: both partners purified
T2 construct: human serum albumin (HSA), carrier protein of the neo-glycoprotein; source: washed with water by ultracentrifugation

Asialofetuin = target: T1, Asialofetuin; assay: ELISA; direct ELISA: ASF immobilised on microtiter plates, serial dilution of the galectin in EPBS (PBS with 2 mM EDTA, 50 µL/well); otherwise as the competitive ELISA (anti-His-tag-HRP detection); settings: both partners purified

Kd [1] [pM]	Kd (Asialofetuin) [µM]	Binder
50 ± 10		Gal-9-AVI-link (monobiotinylated full-length galectin-9) (natural protein, human, UniProt O00182 1-355, looked up, biotin on the single lysine of the AVI-tag (…), human galectin-9 (Gal-9), both CRDs with the linker peptide; prepared as described previously; source: E. coli BL21(λDE3) cotransformed with the birA gene (biotin ligase), biotinylated in vivo; see Supporting Information, Section 6; not shown: (GGS)5 linker between AVI-tag and galectin, N-terminal, kept) MAFSGSQAPYLSPAVPFSGTIQGGLQDGLQITVNGTVLSSSGTRFAVNFQTGFSGNDIAFHFNPRFEDGGYVVCNTRQNGSWGPEERKTHMPFQKGMPFDLCFLVQSSDFKVMVNGILFVQYFHRVPFHRVDTISVNGSVQLSYISFQNPRTVPVQPAFSTVPFSQPVCFPPRPRGRRQKPPGVWPANPAPITQTVIHTVQSAPGQMFSTPAIPPMMYPHPAYPMPFITTILGGLYPSKSILLSGTVLPSAQRFHINLCSGNHIAFHLNPRFDENAVVRNTQIDNSWGSEERSLPRKMPFVRGQSFSVWILCEAHCLKVAVDGQHLFEYYHRLRNLPTINRLEVGGDIQLTHVQT
	2.3 ± 0.8	Gal-4-AVI-link (natural protein, human, UniProt P56470 1-323, looked up, biotin on the single lysine of the AVI-tag, human galectin-4, full-length tandem-repeat galectin with the native full-length peptide linker of 28 aa (2979 Da); synthetic gene (Biocat) in pET-Duet1; also called Gal-4 (AVI-tag); source: E. coli BL21(λDE3) co-expressing biotin ligase BirA, purified (Ni-NTA); not shown: His6, N-terminal, kept) MAYVPAPGYQPTYNPTLPYYQPIPGGLNVGMSVYIQGVASEHMKRFFVNFVVGQDPGSDVAFHFNPRFDGWDKVVFNTLQGGKWGSEERKRSMPFKKGAAFELVFIVLAEHYKVVVNGNPFYEYGHRLPLQMVTHLQVDGDLQLQSINFIGGQPLRPQGPPMMPPYPGPGHCHQQLNSLPTMEGPPTFNPPVPYFGRLQGGLTARRTIIIKGYVPPTGKSFAINFKVGSSGDIALHINPRMGNGTVVRNSLLNGSWGSEEKKITHNPFGPGQFFDLSIRCGLDRFKVYANGQHLFDFAHRLSAFQRVDTLEIQGDVTLSYVQI
